Measurements reported in patent US20240376180A1 (DEUTSCHES ZENTRUM FUR NEURODEGENERATIVE ERKRANKUNGEN E V …, published 2024).

T1: Fc fusion protein of the RBD-SD1 region of MERS-CoV (MERS-CoV, UniProt K9N5Q8 367-655)
T1 sequence: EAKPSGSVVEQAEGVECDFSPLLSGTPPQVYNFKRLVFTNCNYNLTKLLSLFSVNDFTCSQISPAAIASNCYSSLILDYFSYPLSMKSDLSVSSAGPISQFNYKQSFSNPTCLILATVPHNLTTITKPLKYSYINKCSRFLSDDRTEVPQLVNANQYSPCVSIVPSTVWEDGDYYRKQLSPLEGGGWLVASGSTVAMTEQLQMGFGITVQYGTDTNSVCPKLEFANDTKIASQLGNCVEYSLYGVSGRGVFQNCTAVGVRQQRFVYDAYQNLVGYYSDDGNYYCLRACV

T2: Fc fusion protein of the RBD-SD1 region of HCoV-OC43 (HCoV-OC43, UniProt P36334 318-675)
T2 construct: domain: RBD-SD1 region
T2 sequence: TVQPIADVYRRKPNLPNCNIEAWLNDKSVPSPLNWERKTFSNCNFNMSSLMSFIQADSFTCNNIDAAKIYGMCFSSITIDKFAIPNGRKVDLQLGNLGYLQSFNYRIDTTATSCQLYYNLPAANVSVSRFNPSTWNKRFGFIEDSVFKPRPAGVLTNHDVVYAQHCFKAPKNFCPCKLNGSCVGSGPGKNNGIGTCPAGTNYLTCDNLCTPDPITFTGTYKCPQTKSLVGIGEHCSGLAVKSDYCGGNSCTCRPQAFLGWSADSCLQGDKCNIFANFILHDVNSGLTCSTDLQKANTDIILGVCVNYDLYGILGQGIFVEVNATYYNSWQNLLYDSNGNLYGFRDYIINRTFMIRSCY

T3: Fc fusion protein of the RBD-SD1 region of HCoV-HKU1 (HCoV-HKU1, UniProt Q5MQD0 310-677)
T3 construct: domain: RBD-SD1 region
T3 sequence: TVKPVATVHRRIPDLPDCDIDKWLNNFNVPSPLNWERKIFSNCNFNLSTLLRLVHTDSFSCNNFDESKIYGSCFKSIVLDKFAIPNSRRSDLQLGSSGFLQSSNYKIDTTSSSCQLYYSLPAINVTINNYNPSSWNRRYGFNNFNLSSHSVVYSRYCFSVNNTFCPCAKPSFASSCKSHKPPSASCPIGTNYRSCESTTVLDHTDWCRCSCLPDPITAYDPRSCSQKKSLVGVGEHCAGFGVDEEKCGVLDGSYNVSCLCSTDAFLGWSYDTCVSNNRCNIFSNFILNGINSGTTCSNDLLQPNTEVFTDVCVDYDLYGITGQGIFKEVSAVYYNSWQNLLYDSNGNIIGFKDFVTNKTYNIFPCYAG

B1: HL CV07-315 (antibody, V domains shown)
VH: EVQLVESGGGLVQPGRSLRLSCAASGFTFDDYAMHWVRQAPGKGLEWVSGISWNSGSIGYADSVKGRFTISRDNAKNSLYLQMNSLRAEDTALYYCAKDFLWDLHPPRYYGMDVWGQGTTVTVSS
VL: QSVLTRPPSVSAAPGQKVTISCSGSSSNIGNNYVSWYQQLPGTAPKLLIYENNKRPSGIPDRFSGSKSGTSATLGITGLQTGDEADYYCGTWDSSLNGVFGGGTKLTVLG
B2: HL CV07-250 (antibody, V domains shown)
VH: QVQLVQSEAEVKEPGASVEVSCKASGYNFTNFAISWVRQAPGQGLEWMGWISGYNGDTNSAQKFLGRVTMTTDTSTTTAYMELRSLRSDDTAVYYCAGSDNYGFPYNGMDVWGQGTTVTVSS
VL: QSALTQPPSASGSPGQSVTISCTGTSSDLGAYHFVTWYQHYPGKAPKVMIYGVRKRPSGVPDRFSGSKSGNTASLTVSGLQDEDEADYYCSSYAGNNDFVFGGGTKLTVLS
B3: HL CV07-283 (antibody, V domains shown)
VH: QVQLVQSGAEVKKPGASAKVSCKASGYTFTGYYIHWVRQAPGQGLEWMGLINPISGGTNYAQKFQDRVTMTRDTSISTAYMELSRLRSDDTAVYYCVRGPFYYDSSGPLGGMDVWGQGTTVTVSS
VL: QSALTQPASVSGSPGQSITISCTGTSGDVGGYNYVSWYQQHPGKAPKLMIYEVSNRPSGVSNRFSGSKSGNTASLTISGLQAEDEADYYCSSYTSSSTYVFGTGTKVTVLG
B4: HK CV07-287 (antibody, V domains shown)
VH: QVQLVQSGPEVKKPGTSVKVSCKASGFTFTSSAMQWVRQARGQRLEWIGWIVVGSGNTNYAQKFQERVTITRDMSTSTAYMELSSLRSEDTAVYYCAAPYCSSTNCYDAFDIWGQGTMVTVSS
VL: not shown
B5: HK CV38-142 (antibody, V domains shown)
VH: EVQLVQSGAEVKKPGESLKISCQGSGYSFTSYWIGWVRQMPGKGLEWMGIIYPGESDTRYSSSFQGHVTISADKSISTAYLQWSSLKASDTAMYYCARIRGVYSSGWIGGDYWGQGTLVTVSS
VL: not shown

The binders below were run against Fc fusion protein of the RBD-SD1 region of SARS-CoV (SARS-CoV, UniProt P59594 306-577) (assay: ELISA on captured RBD-SD1-Fc).

Row | Binder | binding result
1 | B1 | no binding (tested: 1 µg/ml)
2 | B2 | no binding (tested: 1 µg/ml)
3 | B3 | no binding (tested: 1 µg/ml)
4 | B4 | no binding (tested: 1 µg/ml)

The binders below were run against T1, Fc fusion protein of the RBD-SD1 region … (assay: ELISA on captured RBD-SD1-Fc).

Row | Binder | binding result
5 | B1 | no binding (tested: 1 µg/ml)
6 | B2 | no binding (tested: 1 µg/ml)
7 | B3 | no binding (tested: 1 µg/ml)
8 | B4 | no binding (tested: 1 µg/ml)

Each binder was assayed against T2, Fc fusion protein of the RBD-SD1 region … (assay: ELISA on captured RBD-SD1-Fc).

Row | Binder | binding result
9 | B1 | no binding (tested: 1 µg/ml)
10 | B2 | no binding (tested: 1 µg/ml)
11 | B3 | no binding (tested: 1 µg/ml)
12 | B4 | no binding (tested: 1 µg/ml)

What follows are binders tested against T3, Fc fusion protein of the RBD-SD1 region … (assay: ELISA on captured RBD-SD1-Fc).

Row | Binder | binding result
13 | B1 | no binding (tested: 1 µg/ml)
14 | B2 | no binding (tested: 1 µg/ml)
15 | B3 | no binding (tested: 1 µg/ml)
16 | B4 | no binding (tested: 1 µg/ml)

These binders were tested against T4, Spike protein of authentic SARS-CoV-2 (Munich isolate 984) (SARS-CoV-2, UniProt P0DTC2 14-1273) (assay: cell-based or functional assay).
Set-up: IC90 Neutralizing Assay: unit not given beside the values

Row | Binder | IC50 Neutralizing Assay [µg/mL] | IC90 Neutralizing Assay
17 | B1 | ~0.05 | 
18 | B5 | ~0.05 | 
19 | B2 |  | > 500
20 | B3 | ~0.05 | > 500
21 | B4 |  | > 500

Target: T4, Spike protein of authentic SARS-CoV-2 …
Assay: cell-based or functional assay
Remark: another data set of the same source

Row | Binder | IC50 (PRNT, authentic SARS-CoV-2) [µg/mL]
22 | B1 | 0.0249
23 | B5 | 0.0232
24 | B2 | 0.0035
25 | B3 | 0.0169
26 | B4 | 0.0417

These binders were tested against SARS-CoV-2 S protein-RBD-mFc (SARS-CoV-2, UniProt P0DTC2 319-537) (assay: not given).

Row | Binder | Kd [nM]
27 | B1 | 0.0112
28 | B2 | 0.0564
29 | B3 | 0.0475
30 | B4 | 0.16

Each binder was assayed against beta-2 microglobulin (Homo sapiens (Human), UniProt P61769 21-119) (assay: routine laboratory ELISA).
Sequence of beta-2 microglobulin (P61769 21-119 limits assumed): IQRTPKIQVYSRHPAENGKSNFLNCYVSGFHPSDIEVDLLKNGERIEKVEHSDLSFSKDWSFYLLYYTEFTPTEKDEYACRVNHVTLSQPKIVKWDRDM

Row | Binder | binding result
31 | B1 | no binding (tested: 50 µg/ml)
32 | B5 | no binding (tested: 50 µg/ml)
33 | B2 | no binding (tested: 50 µg/ml)
34 | B3 | no binding (tested: 50 µg/ml)
35 | B4 | no binding (tested: 50 µg/ml)

These binders were tested against SARS-CoV spike on S-pseudotyped MLV virions (SARS-CoV) (assay: cell-based or functional assay).

Row | Binder | pseudovirus neutralization assay, potency (IC50) [µg/mL]
36 | B5 | 1.4

These binders were tested against SARS-CoV-2 spike on S-pseudotyped MLV virions (SARS-CoV-2, UniProt P0DTC2 14-1255) (assay: cell-based or functional assay).

Row | Binder | pseudovirus neutralization assay, potency (IC50) [µg/mL]
37 | B5 | 3.5
